{"source": "IntAct's records for PubMed 19509288", "parents": {"B1": {"name": "ATP-dependent RNA helicase SUPV3L1, mitochondrial (Homo sapiens), Q8IYB8 (parent)", "chain": "MSFSRALLWARLPAGRQAGHRAAICSALRPHFGPFPGVLGQVSVLATASSSASGGSKIPNTSLFVPLTVKPQGPSADGDVGAELTRPLDKNEVKKVLDKFYKRKEIQKLGADYGLDARLFHQAFISFRNYIMQSHSLDVDIHIVLNDICFGAAHADDLFPFFLRHAKQIFPVLDCKDDLRKISDLRIPPNWYPDARAMQRKIIFHSGPTNSGKTYHAIQKYFSAKSGVYCGPLKLLAHEIFEKSNAAGVPCDLVTGEERVTVQPNGKQASHVSCTVEMCSVTTPYEVAVIDEIQMIRDPARGWAWTRALLGLCAEEVHLCGEPAAIDLVMELMYTTGEEVEVRDYKRLTPISVLDHALESLDNLRPGDCIVCFSKNDIYSVSRQIEIRGLESAVIYGSLPPGTKLAQAKKFNDPNDPCKILVATDAIGMGLNLSIRRIIFYSLIKPSINEKGERELEPITTSQALQIAGRAGRFSSRFKEGEVTTMNHEDLSLLKEILKRPVDPIRAAGLHPTAEQIEMFAYHLPDATLSNLIDIFVDFSQVDGQYFVCNMDDFKFSAELIQHIPLSLRVRYVFCTAPINKKQPFVCSSLLQFARQYSRNEPLTFAWLRRYIKWPLLPPKNIKDLMDLEAVHDVLDLYLWLSYRFMDMFPDASLIRDLQKELDGIIQDGVHNITKLIKMSETHKLLNLEGFPSGSQSRLSGTLKSQARRTRGTKALGSKATEPPSPDAGELSLASRLVQQGLLTPDMLKQLEKEWMTQQTEHNKEKTESGTHPKGTRRKKKEPDSD", "partner": "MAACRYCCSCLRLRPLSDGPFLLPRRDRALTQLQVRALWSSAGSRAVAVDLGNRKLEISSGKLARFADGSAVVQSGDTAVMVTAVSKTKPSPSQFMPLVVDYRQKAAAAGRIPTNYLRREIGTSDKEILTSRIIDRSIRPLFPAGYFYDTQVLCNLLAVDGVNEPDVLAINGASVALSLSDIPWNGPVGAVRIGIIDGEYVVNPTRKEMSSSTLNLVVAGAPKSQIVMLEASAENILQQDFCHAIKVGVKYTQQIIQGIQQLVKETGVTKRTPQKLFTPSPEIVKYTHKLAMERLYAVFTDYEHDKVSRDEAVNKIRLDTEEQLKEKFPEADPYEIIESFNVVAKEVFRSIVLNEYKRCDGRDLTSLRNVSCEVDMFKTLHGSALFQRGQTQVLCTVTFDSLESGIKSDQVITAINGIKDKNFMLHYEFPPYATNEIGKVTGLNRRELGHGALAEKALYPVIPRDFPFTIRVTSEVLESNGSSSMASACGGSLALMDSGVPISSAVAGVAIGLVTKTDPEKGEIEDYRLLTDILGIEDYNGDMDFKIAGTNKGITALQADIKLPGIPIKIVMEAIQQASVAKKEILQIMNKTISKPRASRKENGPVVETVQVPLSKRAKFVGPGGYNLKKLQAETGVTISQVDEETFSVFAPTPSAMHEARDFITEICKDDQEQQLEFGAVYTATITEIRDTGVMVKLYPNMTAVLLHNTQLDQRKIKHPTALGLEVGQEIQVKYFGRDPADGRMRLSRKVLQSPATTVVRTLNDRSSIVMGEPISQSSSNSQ"}}, "data": [{"variants_of": "B1", "conditions": "with pnpt1_human PNPT1, Q8TCS8", "values": [{"variant": "K213A", "effect of a mutation on the interaction": "with no effect"}]}]}
